Legend:
[1] = mating with proven fertile normal males; conditions: glycan lost; control: co-caged transgenic control females
[2] = EGFP acrosome status and Alexa 568-SBTI staining; conditions: glycan lost; control: normal eggs
[3] = two-cell embryos after overnight incubation; conditions: glycan lost; control: normal eggs
[4] = displacement of Hoechst-labelled sperm by Acr3-EGFP sperm; conditions: glycan lost; control: normal eggs

B1: ZP3: Zp3Mut (protein)
parent chain: MASSYFLFLCLLLCGGPELCNSQTLWLLPGGTPTPVGSSSPVKVECLEAELVVTVSRDLFGTGKLVQPGDLTLGSEGCQPRVSVDTDVVRFNAQLHECSSRVQMTKDALVYSTFLLHDPRPVSGLSILRTNRVEVPIECRYPRQGNVSSHPIQPTWVPFRATVSSEEKLAFSLRLMEENWNTEKSAPTFHLGEVAHLQAEVQTGSHLPLQLFVDHCVATPSPLPDPNSSPYHFIVDFHGCLVDGLSESFSAFQVPRPRPETLQFTVDVFHFANSSRNTLYITCHLKVAPANQIPDKLNKACSFNKTSQSWLPVEGDADICDCCSHGNCSNSSSSQFQIHGPRQWSKLVSRNRRHVTDEADVTVGPLIFLGKANDQTVEGWTASAQTSVALGLGLATVAFLTLAAIVLAVTRKCHSSSYLVSLPQ
no change: other: in vivo fertility (litter size) [1] | other: induction of sperm acrosome exocytosis [2] | other: in vitro fertilisation rate [3] | other: reversibility of sperm binding [4]

Reference: paper PMC3272265
